Test results taken from patent CN112646036A.

Target: CD23的多肽抗原 (synthetic CD23 peptide antigens of SEQ ID NO:1-3)
Experiment: indirect ELISA; peptide antigens of SEQ ID NO:1-3 on the 96-well plate at varied molar concentrations, antibody at 0.125 μg/mL (about 0.83 nmol/L), HRP goat anti-mouse IgG, OD450; value given at a peptide concentration of 0.56 μmol/L

B1: 365A2D1抗CD23单克隆抗体 (anti-CD23 monoclonal antibody secreted by mouse hybridoma cell line 365A2D1) (antibody, V domains shown)
VH: EVQLQESGGGLVQPKGSLKLSCAASGYTFNTYAMHWVRQAPGKGLEWVARIRSKSNNYEPYYADSVKDRFTISRDDSQSILYLQMNNLKTEDTAMYYCVREYYDAMDYWGQGTSVTVSS
VL: EIVMTQAAPSVSVTPGESVSISCRSSQSLLHSNGNTYLYWFLQRPGQSPHLLISRVSNLASGVPDRFSGSGSGTAFTLRISRVEAEDVGVYYCMQGLEFPWTFGGGTKLEIK
For B1, the Kd was 700 nM.
